How the values were obtained:
[1] = tested on: CC(C)C[C@H](N)C(=O)Nc1ccc([N+](=O)[O-])cc1; test: purified protein, by the assay type; conditions: other: Tris-Cl pH 8.0, 37° C., measured by same experiment, Lineweaver-Burk plot
Experimental: (§1) Precisely, 1 U of enzyme activity defines the enzyme quantity changing 1 absorbance at 405 nm which is measured by the process adding aminopeptidase in 1 ml solution of 100M Tris-Cl (pH 8.0) and 2 mM leucine-p-nitroanilide (Sigma, USA), incubating at 37° C. for 1 min, then adding 100 μl of 70% acetic acid to stop the reaction. At that time leucine-p-nitroanilide was dissolved in dimethylsulfoxide (DMSO) to make 100 mM solution.
(§2) In order to compare substrate specificity of aminopeptidase of this invention, 2 kinds of substrate were used. In detail, one was synthetic substrates of p-nitroanilide derivative and purchased from Sigma, USA and the other was oligopeptide such as methionyl oligopeptide of SEQ. ID. NO: 1 which have amino acid sequence similar to N-terminus of methionyl HGH and leucyl oligopeptide of SEQ. ID. NO: 2.
(§3) Enzyme reaction of aminopeptidase was performed by the process described in Reference Examples. At that time p-nitroanilide derivative was used as synthetic substrate. Leucine p-nitroanilide was used as substrate to perform the reaction in concentration of 0.03125, 0.0625, 0.125, 0.25, 0.5, 1 mM and methionine p-nitroanilide in 0.125, 0.25, 0.5, 1 mM and aminopeptidase in 0.5 U respectively. Above reactions using leucine-p-nitroanilide proceeded for 2 min and methionine-p-nitroanilide for 40 min. Then 70% acetic acid was added to stop the reactions and absorbance at 405 nm was measured. The product concentration was measured by adopting absorbance constant ε405=9450M^−1 cm^−1.
(§4) In reaction condition mentioned above, initial velocity of enzyme reaction was measured with varying the substrate concentration. Lineweaver-Burk plot was used to determine Km value and Maximum reaction velocity of aminopeptidase from Bacillus licheniformis. In addition kcat and kcat/Km was determined by using Km value and maximum reaction velocity described above.

[2] = tested on: CSCC[C@H](N)C(=O)Nc1ccc([N+](=O)[O-])cc1; test: purified protein, by the assay type; conditions: other: Tris-Cl pH 8.0, 37° C., measured by same experiment, Lineweaver-Burk plot
Experimental: as §1, §2, §3, §4

Aeromonas proteolytica (Vibrio proteolytica) aminopeptidase (Vibrio proteolyticus)
Km [1]: 240 µM | kcat [1]: 48 s⁻¹ | kcat/Km [1]: 200000 M⁻¹ s⁻¹ | Km [2]: 942 µM | kcat [2]: 2.64 s⁻¹ | kcat/Km [2]: 2800 M⁻¹ s⁻¹

From US6428997B1, “Aminopeptidase derived from Bacillus licheniformis and process for preparation of natural type proteins” (LG Chemical Ltd., priority 1997, dated 2002)
